Data set [1] concerns the molecule itself. The data set is described as follows: SEC. A general note: Size exclusion chromatography separates by hydrodynamic size, large species first.
Substrate in data set [2]: Nc1ncnc2c1ncn2[C@@H]1O[C@H](COP(=O)(O)OP(=O)(O)OP(=O)(O)O)[C@@H](O)[C@H]1O
The data set is described as follows: radiometric S-adenosylmethionine formation assay, Michaelis-Menten fit. It counts as biochemical, Methanocaldococcus jannaschii. The conditions noted are these: 0.5 mM [methyl-14C]-L-methionine, ATP 0.05-2.5 mM, 55 °C.

Data set [3] concerns the molecule itself. The data set is described as follows: AUC.

B1: Methanococcus jannaschii methionine adenosyltransferase, wild type (enzyme, UniProt Q58605 1-406, looked up)
chain: MRNIIVKKLDVEPIEERPTEIVERKGLGHPDSICDGIAESVSRALCKMYMEKFGTILHHNTDQVELVGGHAYPKFGGGVMVSPIYILLSGRATMEILDKEKNEVIKLPVGTTAVKAAKEYLKKVLRNVDVDKDVIIDCRIGQGSMDLVDVFERQKNEVPLANDTSFGVGYAPLSTTERLVLETERFLNSDELKNEIPAVGEDIKVMGLREGKKITLTIAMAVVDRYVKNIEEYKEVIEKVRKKVEDLAKKIADGYEVEIHINTADDYERESVYLTVTGTSAEMGDDGSVGRGNRVNGLITPFRPMSMEAASGKNPVNHVGKIYNILANLIANDIAKLEGVKECYVRILSQIGKPINEPKALDIEIITEDSYDIKDIEPKAKEIANKWLDNIMEVQKMIVEGKVTTF
One may read the stoichiometry N as the number of molecules, sites or subunits per partner or assembly. As usually defined, the Km is the concentration of substrate that gives half-maximal velocity. The term kcat denotes the number of substrate molecules converted per active site and unit of time at saturation. For B1, in data set [1], the “stoichiometry N” value amounted to 2. In data set [2], the Michaelis constant (Km) was found to be 190 ± 30 µM and the kcat is 1.46 ± 0.05 s⁻¹.

B2: Mj-MAT W387F-Y170W (enzyme, Methanococcus jannaschii, UniProt Q58605 1-406, looked up)
chain: MRNIIVKKLDVEPIEERPTEIVERKGLGHPDSICDGIAESVSRALCKMYMEKFGTILHHNTDQVELVGGHAYPKFGGGVMVSPIYILLSGRATMEILDKEKNEVIKLPVGTTAVKAAKEYLKKVLRNVDVDKDVIIDCRIGQGSMDLVDVFERQKNEVPLANDTSFGVGWAPLSTTERLVLETERFLNSDELKNEIPAVGEDIKVMGLREGKKITLTIAMAVVDRYVKNIEEYKEVIEKVRKKVEDLAKKIADGYEVEIHINTADDYERESVYLTVTGTSAEMGDDGSVGRGNRVNGLITPFRPMSMEAASGKNPVNHVGKIYNILANLIANDIAKLEGVKECYVRILSQIGKPINEPKALDIEIITEDSYDIKDIEPKAKEIANKFLDNIMEVQKMIVEGKVTTF
As for B2, in data set [2], the Michaelis constant (Km) came to 100 ± 20 µM and the kcat turned out to be 2.39 ± 0.03 s⁻¹. For the same protein, in data set [3], the “stoichiometry N” value came out at 2.

(Values after publication PMC2704562 (Biochimica et biophysica acta, 2009).)
